Holding throughout (conditions): both partners purified
The target in one test is T1, KDM5A_(1-797) (human, UniProt P29375 1-797).
T1 construct: histone demethylase KDM5A, human, residues 1-797; Cloned into pFASTBAC HTA; the His tag was removed with TEV protease; also called WT KDM5A_(1-797); KMD5A; source: Sf21 (baculovirus), purified (cobalt resin, TEV cleavage, S200 SEC); not shown: His tag, N-terminal, cleaved
T1 sequence (looked up): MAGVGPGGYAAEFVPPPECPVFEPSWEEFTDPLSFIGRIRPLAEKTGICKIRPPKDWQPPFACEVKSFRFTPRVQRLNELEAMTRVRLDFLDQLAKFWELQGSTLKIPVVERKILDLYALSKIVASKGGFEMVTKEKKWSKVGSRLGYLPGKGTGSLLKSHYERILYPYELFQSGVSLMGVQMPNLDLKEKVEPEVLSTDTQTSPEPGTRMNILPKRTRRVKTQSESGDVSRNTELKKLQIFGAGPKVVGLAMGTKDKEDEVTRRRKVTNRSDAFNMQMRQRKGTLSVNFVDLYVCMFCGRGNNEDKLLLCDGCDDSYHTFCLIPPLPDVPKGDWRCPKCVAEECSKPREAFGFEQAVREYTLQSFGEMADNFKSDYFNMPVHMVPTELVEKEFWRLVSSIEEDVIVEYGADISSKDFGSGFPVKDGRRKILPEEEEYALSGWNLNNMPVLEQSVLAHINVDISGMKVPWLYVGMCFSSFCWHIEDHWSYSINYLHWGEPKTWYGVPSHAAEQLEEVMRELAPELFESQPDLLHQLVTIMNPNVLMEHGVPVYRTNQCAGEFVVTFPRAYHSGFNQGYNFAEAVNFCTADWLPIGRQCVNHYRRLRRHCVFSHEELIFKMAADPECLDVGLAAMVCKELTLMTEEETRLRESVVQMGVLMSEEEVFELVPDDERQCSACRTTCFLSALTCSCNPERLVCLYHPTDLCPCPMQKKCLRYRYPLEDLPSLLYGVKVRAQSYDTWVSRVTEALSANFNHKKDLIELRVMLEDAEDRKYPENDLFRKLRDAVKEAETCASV
As to the kind of experiment: HDX-MS; KDM5A_(1-797) with 50 µM FeSO4 and 100 µM N-OG, with 100 µM H3 10mer effector peptide against apo; 40 mM HEPES, 50 mM KCl, pH 7.9, 4 °C.

Test [1] deals with T2, GST-PHD1 (S287-K347) of KDM5A (human, UniProt P29375 287-347).
T2 construct: PHD1 domain of histone demethylase KDM5A, human, residues S287-K347; Cloned into pET41a; the vector may add further tags (surmise); also called S287-K347 PHD1; GST-PHD1 (Ser287-Lys347); source: E. coli BL21(DE3), purified (Glutathione Sepharose 4B, Superdex 75 SEC); not shown: GST, N-terminal, kept
T2 sequence (looked up): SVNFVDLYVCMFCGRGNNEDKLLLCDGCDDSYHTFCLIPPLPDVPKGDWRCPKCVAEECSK
Description: fluorescence polarisation; competition-based FP: 2 µM GST-PHD1 with 10 nM C-terminal fluorescently labeled H3 peptide and different concentrations of unlabeled competitor peptide. On the technique in general: Polarisation of emitted light reports the rotation of a fluorescent probe.

Test [2] addresses T3, GST-PHD1 (S287-K347) D292A of KDM5A (human, UniProt P29375 287-347, D292A).
T3 construct: PHD1 domain of histone demethylase KDM5A, human, residues S287-K347 with D292A; Cloned into pET41a; the vector may add further tags (surmise); also called S287-K347 PHD1 D292A; PHD1 D292A; source: E. coli BL21(DE3), purified (Glutathione Sepharose 4B, Superdex 75 SEC); not shown: GST, N-terminal, kept
T3 sequence (looked up): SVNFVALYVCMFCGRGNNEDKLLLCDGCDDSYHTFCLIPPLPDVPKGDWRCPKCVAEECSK
The description is as above.

Test [3] deals with T4, GST-PHD1 (V291-K347) of KDM5A (human, UniProt P29375 291-347).
T4 construct: PHD1 domain of histone demethylase KDM5A, human, residues V291-K347; Cloned into pET41a; the vector may add further tags (surmise); also called V291-K347 PHD1; PHD1_(KDM5A); source: E. coli BL21(DE3), purified (Glutathione Sepharose 4B, Superdex 75 SEC); not shown: GST, N-terminal, kept
T4 sequence (looked up): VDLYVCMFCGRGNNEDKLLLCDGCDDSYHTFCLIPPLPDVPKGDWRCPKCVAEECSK
The description is as above.

Test [4] addresses T2, GST-PHD1 (S287-K347) of KDM5A. Description: fluorescence polarisation; direct FP: 10 nM C-terminal fluorescently labeled H3 peptide with varying concentrations of GST-PHD1.
Test [5] has as its target T3, GST-PHD1 (S287-K347) D292A of KDM5A. The test is described as above.
Test [6] addresses T4, GST-PHD1 (V291-K347) of KDM5A. Described as above.

This passage reports binding result and Kd results from PMC6327041, “Histone H3 binding to the PHD1 domain of histone demethylase KDM5A enables active site remodeling” (Nature Communications, 2019).

Where no end group is shown, it is not given here. 5‑FAM = 5-carboxyfluorescein; Me3 = trimethyl-lysine

B1: unmodified H3 10mer effector peptide (H3 Ala1-Ser10) (peptide, UniProt P68431 2-11, looked up)
peptide: ARTKQTARKS
notes: histone H3 N-terminal tail, 10mer Ala1-Ser10, unmodified, unlabelled; also called H3 10mer peptide; PHD1-specific H3 10mer peptide
On to B1, for which, in the test with KDM5A_(1-797), the binding result is listed as “binds”.

B2: H3K4me3 10mer peptide (peptide, UniProt P68431 2-11, looked up)
peptide: ARTK(Me3)QTARKS
notes: histone H3 N-terminal tail, 10mer Ala1-Ser10; also called tri-methylated H3K4 peptide
What is called Kd is the free concentration of one partner at which half of the binding sites on the other are occupied at equilibrium, for simple one-to-one binding. Read a low Kd as a tighter complex. In the case of B2, the Kd in test [1] was found to be 34 ± 5.5 µM; in test [2], 511 ± 281 µM; in test [3], 35.5 ± 7.5 µM.

B3: 5-carboxyfluorescein (5-FAM) conjugated H3 10mer peptide (peptide, UniProt P68431 2-11, looked up)
peptide: ARTKQTARKS-{5‑FAM}
notes: histone H3 N-terminal tail, 10mer Ala1-Ser10, unmodified; also called H3K4me0; C-terminal fluorescently labeled H3 peptide
Take B3: the figures for the dissociation constant Kd in test [4], in test [5] and in test [6] were 0.68 ± 0.04 µM, 5.2 ± 0.26 µM and 1.89 ± 0.16 µM, respectively.

B4: H3K4A 10mer peptide (peptide, UniProt P68431 2-11, looked up)
peptide: ARTAQTARKS
notes: histone H3 N-terminal tail, 10mer Ala1-Ser10 with K4A
As to B4, the Kd amounted to 1.58 ± 0.19 µM in test [1], 22.2 ± 5.7 µM in test [2] and 2.11 ± 0.27 µM in test [3].
